From the supplement of paper PMC9170038

Tested on: MS2 coat protein
Assay: apparent KD of MS2 coat protein; designed switch direction (-1 OFF switch, 1 ON switch): -1; higher = weaker reporter binding
Outline: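 The buffer was Tris-HCl pH 7.5 with KCl, MgCl2, BSA, DTT, tRNA and Tween-20. In it, SNAP-549-labelled MS2 coat protein was titrated in doubling steps from 0.7 or 1.5 nM to 3 µM over chip-bound RNA switches transcribed by stalled E. coli RNA polymerase on Illumina chips. Apparent KD is the per-design median over clusters of curve fits to normalised fluorescence.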

[1] = Eterna round: R95, input ligand: microRNA oligo, concentration not stated
[2] = Eterna round: R95, input ligand: FMN 200 uM
[3] = Eterna round: R95, input ligand: none
[4] = input ligand: microRNA oligo, concentration not stated

| Sequence | apparent KD of MS2 coat protein (input ligand: FMN 200 uM) | apparent KD of MS2 coat protein (input ligand: none) | further results |
| --- | --- | --- | --- |
| CAGCUGAAAGUGAGGAUAUCUAGAGCCUCGGCUCUAGAGAAGGCACAUGAGGAUCACCCAUGUGAUCACAGCUG [BmEx4/7-A2] (Eterna round: R97, puzzle: Brourd's mod of Exclusion 4) | 1320 nM | 307 nM | – |
| GAAAAUGUGGAGGAUAUCGACUUCGAAAGAAGUCGAGAAGGCCACACAUGAGGAUCACCCAUGUGAUGCCUAUA [Omei Ex6 H8] (Eterna round: R97, puzzle: Exclusion 6) | 774 nM | 230 nM | – |
| CCUACGUUGUAGGAUAUAGUGAUUUAUUAAUAUUUAGAAGGACAUACAUGAGGAUCACCCAUGUGAGUUGGGUG [Eternabot (L2) Solution 27] (Eterna round: R97, puzzle: Exclusion 6) | 153 nM | 674 nM | – |
| AAAAGGUGAGGAUAUUCAAGGAAAGACAUGAGGAUCACCCAUGUAAGAAAGGAAAAGGGAGGAGAAGGUGUGAAAA [salish99_ex5_r4_136] (Eterna round: R97, puzzle: Exclusion 5) | 62.1 nM | 60.2 nM | – |
| UUUUUUGUUGUGAGGAUAUCGUAUUUUUUUUGUUACGAGAAGGCACAUGAGGAUCACCCAUGUUUCUUGAUGUU [JR_BMOE4_Sub066] (puzzle: Brourd's mod of Exclusion 4) | – | – | apparent KD of MS2 coat protein [1]: 16.8 nM |
| CCCUCACAUGAGGAUCACCCAUGUCAGGAUAUUCGGCGGUCAAUUGACCGCCUUAAAGGAAGAAGGGACGUAAA [Masore] (puzzle: Exclusion 1) | – | – | apparent KD of MS2 coat protein [1]: 11.8 nM |
| AAGUAUAGAGGAUAUAGUGAGUACUACAUGAGGAUCACCCAUGUUCUUCAAAGCGUAUUUCUAGAAGGCUGAUGAA [EX-5 Malc#15] (puzzle: Exclusion 5) | – | – | apparent KD of MS2 coat protein [2]: 58.4 nM; apparent KD of MS2 coat protein [1]: 38.8 nM; apparent KD of MS2 coat protein [3]: 51.5 nM |
| ACUUAUUGAGGAUAUACAUUAAUUUACAUGAGGAUCACCCAUGUUCUUCAAUGUAUAUAUGUAGAAGGCAGAAGAA [JL-ex5-4.30 Malcolm mod] (Eterna round: R97, puzzle: Exclusion 5) | 29.3 nM | 14 nM | – |
| UAUAUGUCAGGAUAUCGAUUGGAAUGGAAUUUAGUUUUGGUUGAGAAGGGACAUGAGGAUCACCCAUGUUUUUC [EX4 #62] (Eterna round: R97, puzzle: Exclusion 4) | 76.7 nM | 32.1 nM | – |
| UGCGGUAGAGGAUAUACGUAGAAAUAGAUUCAUGUAAAACUACAUGAGGAUCACCCAUGUAGAAGGCUAUCGCU [JL-ex2-4.27 Eli mod] (Eterna round: R97, puzzle: Exclusion 2) | 265 nM | 25.8 nM | – |
| GGUUUGCGGCAGGAUAUCCAUCCGCGGUGUGGUGGAGAAGGGCUGACAUGAGGAUCACCCAUGUGCGUCCUGGU [salish99_ex6_r4_021] (Eterna round: R97, puzzle: Exclusion 6) | 36.3 nM | 21.8 nM | – |
| CCGAAUAAGCAGGAUAUCGAAUCGGAAACGAUUCGAGAAGGGUUAACAUGAGGAUCACCCAUGUUCCUUAACGG [Mat - Exclusion 6 - Eli Mod - D78] (puzzle: Exclusion 6) | – | – | apparent KD of MS2 coat protein [1]: 19.2 nM |
| GAGUAGAGAGGAUAUGCAAUGAUCAUCGUACGAUGAGGCUGACAUGAGGAUCACCCAUGUAGAAGGCUCUGGUC [EX2 #20] (Eterna round: R97, puzzle: Exclusion 2) | 22.5 nM | 23.3 nM | – |
| GAGUUAGCGUGUGGAAUAUACAUGAGGAUCACCCAUGUUAGCUUAUAUAUUGCUCGUCUUAUAACAACAAUUAACUG [Mod JX-Electric-eye3] (Eterna round: R97, puzzle: Sensor, turn-off variant 1) | 138 nM | 143 nM | – |
| GAUUAUGCGAGCUUUAGGGACAUGAGGAUCACCCAUGUUCGUCUUGUUGAUCUAGGUACGCUGACAUACCUAAAUCU [JMF 99] (puzzle: Sensor v3, turn-off variant 1) | – | – | apparent KD of MS2 coat protein [2]: 19.6 nM; apparent KD of MS2 coat protein [1]: 25.6 nM; apparent KD of MS2 coat protein [3]: 19.7 nM |
| CUUAGCGUAGGAUAUUAGUACAUGAACAUGAGGAUCACCCAUGUGAGGUGGGUCUUAGAUUAAGAAGGGCGAAGAA [EX5 #32] (Eterna round: R97, puzzle: Exclusion 5) | 221 nM | 249 nM | – |
| CACCGUUACAGAGGAUAUGGUACAUGAGGAUCACCCAUGUAAUAAAUGAGAAUUUCGAAUGUAAUCCAGAAGGCUGGAAUCGGC [Ostricism 74 - Jieux - Exclusion NG 2] (Eterna round: R96, puzzle: Exclusion NG 2) | 228 nM | 96.3 nM | apparent KD of MS2 coat protein [4]: 85.2 nM |
| UAGUUACAUGAGGAUCACCCAUGUGAGGAUAUGAGUCAGUCACGGUGACGUGGCUGACUCAGAAGGCACAAUGG [Mat - Exclusion 1 - JL Mod - D45] (Eterna round: R97, puzzle: Exclusion 1) | 77.4 nM | 256 nM | – |
| GGAUCGAGUGUGAGGAUAUGCUGGUCCUUGGAUCAGCAGAAGGCACAUGAGGAUCACCCAUGUGAAGACGGUCC [JL bmx4 3.16] (Eterna round: R96, puzzle: Brourd's mod of Exclusion 4) | – | – | apparent KD of MS2 coat protein [4]: 25.9 nM |
| AGUGUGUGGCAGGAUAUGCGAUUUAUAGGUGAAGCAGAAGGGUCUACAUGAGGAUCACCCAUGUGUGCGGUUGA [Ex6 #21] (Eterna round: R97, puzzle: Exclusion 6) | 318 nM | 160 nM | – |
| AGUGCGUAUGUGAGGAUAUGCUGGUCCUUGGCUCGGCAGAAGGCACAUGAGGAUCACCCAUGUGGUGUCGUACU [salish99_Bmod_ex4_066] (puzzle: Brourd's mod of Exclusion 4) | – | – | apparent KD of MS2 coat protein [1]: 148 nM |
| AACUAGUCAGGAUAUACGAACAUGUCAAAAAACAUAAAGGGACAUGAGGAUCACCCAUGUAGAAGGGACUAGCA [74%, Web mod - With 4 less G's] (Eterna round: R96, puzzle: Exclusion 2) | – | – | apparent KD of MS2 coat protein [4]: 150 nM |
| CUGAUGUGAGGAUAUCUAAGGCGACCAUGAGACAUGGGCCAAGAGAAGGCACAUGAGGAUCACCCAUGUACCGA [Anertees] (Eterna round: R97, puzzle: Exclusion 4) | 83.8 nM | 22.2 nM | – |
| UACAUGAGGAUCACCCAUGUUUUGUCGUGUAUGGUAUUUAUCUAGGAUAUCAAUCAAUUUAUUUAUGAGAAGGAGAAUAUUAAU [JMF's solution 49] (Eterna round: R96, puzzle: Exclusion NG 3) | 37.8 nM | 33.8 nM | apparent KD of MS2 coat protein [4]: 26 nM |
| UAAGAAUACCGAGGAUAUGGUAGUACAUAUUUACCAGAAGGCGGACUCAACAUGAGGAUCACCCAUGUAUAAAGGGUAUUAGGU [JR_ExcNG1_Sub043] (Eterna round: R96, puzzle: Exclusion NG 1) | 94.1 nM | 64.3 nM | apparent KD of MS2 coat protein [4]: 58.3 nM |
| CUGAAUCGAGGAUAUACAUGAGGAUCACCCAUGUAUACUGUCUUGGUGAGAGUCCCGUGUAGAAGGCGACAGGC [EX3 B.6] (Eterna round: R97, puzzle: Exclusion 3) | 60.1 nM | 35.9 nM | – |
| CGCUGGACAGGAUAUGUUCUUGGGCACUUGAGGAUCACCCAAGUCAUCAAAAACUCAGGCACAGAAGGGUUUAUGG [salish99_ex5_r4_019] (Eterna round: R97, puzzle: Exclusion 5) | 76 nM | 176 nM | – |
